According to the domain aggregation screens of Martell et al. (2025):

Test: soluble fraction after stress (log2 fold change); higher = more stays soluble; pooled small domains, quantitative proteomics
Settings: stress: 50 degC
In short: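 The stress applied to every library was 50°C. These custom libraries of small protein domains were pooled and measured at high throughput with quantitative proteomics as the read-out. Aggregation propensity is expressed as the base-two logarithm of the fold change in how much of each protein remains soluble. The higher the value, the more of that protein stays in solution.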

| Sequence | soluble fraction (log2) |
| --- | --- |
| HMPPLVLRGVVMGADGARLAILAQGEAGAALGIGETWKEYTLRSVTDQSATLEHRSGTITLTR | -0.117 |
| HMPPNPELGKKLLKLRKEFKMTQDDVANILGMSRTSFSKYENGIANPPLQVMRKLASIYNVGLEYLI | -1.04 |
| HMPQEMIEILATPNGWLRVRQGPGTNYPEITKVNSGEEFPLLEEKDSWFKIRIEEGQEGWISSQYAQKEE | -0.0402 |
| HMPQGFEDLTEREREVLTLIAEGRTNQEIADALVISIKTVNRHRENIMAKLNLHSRVELVRYAIAQGLI | -0.474 |
| HMPQNLQDQLFELILSRYPRRADAVEDLANILHLGKDPVYRRLRGDTFLSPLEISTLALHFRISLDALIV | -2.55 |
| HMPQPEIEIAAVVPYSAGALLSRIHDDGELLAPVEYRGEGVFVHARVPADIEAAMRRGGMLSPAET | 0.0913 |
| HMPQQVFKREDLQKWGLTGQADSRKRREKLGQLLGIGYGNGKQLIHRLNMFQVDRATFEQAIKQINQEEDH | -0.423 |
| HMPQTNIYPNPAFDKLFVSNLENETNFKIMDLFGRTIINSKTKGEISISELKSGIYIIEINNFRQKFVK | -0.839 |
| HMPQVALAIDEMKRELASPDIVKTLLATTFKGLSEVNMRQAMLDGMIQGHTIADFFKKDVYAIPFGSGYSL | 0.0921 |
| HMPRPFPELTTREHDILALIARGWSNGRIADHLSLSGKTVSNYVSNILGKLQVTARAEAAERAREAGMGQ | -0.00905 |
| HMPRRSYLDARKKLLGMLNSPDFNSGDQIPAERELSEVLGISRVTVRKIITELIDEGVLERRGNQGTWLVD | -0.378 |
| HMPRSREVHVEPGMVLEDVTTGFVGAVIRTEKSAGIYVIELEDRRGRRRSFPLGGGFWLDGRPIIALPPLP | -1.19 |
| HMPSLAVYPNPVKDILNIATDKPVHSIRIYNVYGSEVLRAADTNRIDVSHLPAGVYMVSADGKVTRIIK | -0.462 |
| HMPSLGGLLALLKRNRKPDAMEALDRLISKEDRPETAEALENIREKVRNMQMREAEGLLLALMEP | -0.0372 |
| HMPSLILADEPTGNLDSRNSSEVIALLKNASKRYAQTIIMITHNRSIAQSADRVLQVSDGVLTDMG | 0.0494 |
| HMPSLNDRPDDVLYLFSYFLQSFSHRQVSLPKILKKALIQHDWWGNIRELHSVALRYYIFGDTLNGAYDSL | -1.3 |
| HMPSLSREREAAILEMIERRPSTAEDVASGLGLAVNEVIKLLDGTALRGSVETFQSGEEIYYTRKR | 0.144 |
| HMPSNVKIPDVTGKTVAQARSAIEAAGLKVGKEKDEYSDSAKKDSVIRTNPQAGTQRREGSTVDLIVS | 0.122 |
| HMPSPFYIMDEVEAALDDTNLGRLITLFEELRDSSQLIVITHQKKTMEIADALYGVTMRGDGITTVVSQRL | -0.343 |

| Sequence | soluble fraction (log2) |
| --- | --- |
| HMPSQEQSDKNAAMAFLPVIVKNALNGKGLKISDDWKAAVNTALAQYPLVNKFFNADSPEVTELVMGL | -0.0489 |
| HMPSQLPLAFARRHGVLLRGFSNGLAQLTVRPEVSTLSLAETRRHLGVPLALEKVTTERFDQLLREAYEA | -0.37 |
| HMPSYYKELQNYSPENPVVKKRKVHPDVVNAIKYLAEITDGNPMLIKAYAQMILAHVFTTMPLIDKSV | -0.128 |
| HMPTEAIVLQQIQIRQSPSGNSKSLQQILPGAKIKITSESSVKGWKQVSLDGGQKGWIPTAAIGL | -0.0262 |
| HMPTELVYTVPASAEGLRLDHFLVQHVPHMTRALATELTGAGGVRVNGRRAKKGDRLPSGAEVRLER | 0.178 |
| HMPTFAEKLHEVRKARDFTQDQLAKEMNVSRQTISHWENGRAVPDIDTIKHLSQVLDYNFLV | 0.124 |
| HMPTITIQRGIILSSTTKGFIDELSHSQIKNAIVERLGEHHVMIHESQLDAVIKYAQKKEAVINIYL | -0.0325 |
| HMPTMEQTYIGRTMIAEEDMGKNSKIKVSGIYWTAYNKGRVIKKGEEYKITGIEGNKLIVSSK | -0.0359 |
| HMPTNSDRLIGSDGVVSSKIDNLQGTGKVYISGLTWSARTIDGSEAEEGDIVTVEKIEGATLYVTKR | 0.0599 |
| HMPTNVYSIIGKEGIVLESIDNLNSTGKVKVNGELWSAISDSNIEKGETIKVLSVNGVKLKVEKVN | 0.0885 |
| HMPTPASGSSGYINATNVNFRTGPATSYKSISKLAKNTAVTILGTSGNWYKVTVGSLGKNGYVFATYVTVS | -0.556 |
| HMPTPLTPREHEIANLIAQGLSNREIADELVISPATAARHVANILAKLGFSSRTQVASWATRHD | -0.179 |
| HMPTSLPGIDIDEKNIVSSTGALSFKKVPKKLAIIGGGYIGLEMGSVWSRLGSSVTVIEYLNFITPG | -0.00687 |
| HMPTTLEGIEKYLSSGLIKGIGPHLAGKLVEAFGTRVFEVVEHQPERLRTVGGIGRTRAESITSAWRDQ | -0.168 |
| HMPTTNIRAFRLREADPESVKEALSMVMPKTSIYVDARTKSVLVVGLLDELARAAEIVALIDQP | -0.79 |
| HMPVFSAEQVAKAEADVQKVANKVQEAGADVEKLTTIHNWLLAREKYMPPDLFSTANQIIATAFQKAG | 0.112 |
| HMPVGSIGERLKALRLKAGLTQEEVGQHVHISKQTLYKYENGIVTNIPADKIELLATIYSVTPAYIMGWA | -0.875 |
| HMPVQPMDPSIEHISALTGKQFQAFPGQDHRAHMTAHLNFMSTNIVRNNPAVMGAIQKNILEHISLMAQEQ | 0.153 |
| HMPVSLHEQIQQARIRAEQNVEGISLLLQVNPKYYEQIEAGDVIPDQDLLKRISSLFGWNYHEMLHREKSS | -0.239 |
